Results: PMC2746561

How the values were obtained:
[1] = target: full Ska1 complex (Rama1/Ska1/Ska2) (human) (UniProt Q96BD8); assay: SEC + other: sucrose gradient sedimentation
[2] = target: microtubules (polymerized tubulin) (UniProt Q6B856); assay: co-sedimentation

Chain of full Ska1 complex (Rama1/Ska1/Ska2) (Q96BD8 whole entry): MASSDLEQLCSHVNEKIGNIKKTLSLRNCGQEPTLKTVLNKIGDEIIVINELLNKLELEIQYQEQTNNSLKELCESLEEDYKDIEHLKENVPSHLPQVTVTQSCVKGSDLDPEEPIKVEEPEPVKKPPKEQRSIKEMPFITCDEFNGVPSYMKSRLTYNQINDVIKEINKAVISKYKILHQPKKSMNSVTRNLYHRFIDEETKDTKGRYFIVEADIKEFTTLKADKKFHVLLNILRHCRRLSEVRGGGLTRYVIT
Chain of full Ska1 complex (Rama1/Ska1/Ska2) (Q8WVK7 whole entry): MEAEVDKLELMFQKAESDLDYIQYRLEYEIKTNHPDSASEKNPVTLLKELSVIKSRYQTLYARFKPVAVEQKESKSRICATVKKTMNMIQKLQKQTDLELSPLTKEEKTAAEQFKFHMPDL
Chain of full Ska1 complex (Rama1/Ska1/Ska2) (Q8IX90 whole entry): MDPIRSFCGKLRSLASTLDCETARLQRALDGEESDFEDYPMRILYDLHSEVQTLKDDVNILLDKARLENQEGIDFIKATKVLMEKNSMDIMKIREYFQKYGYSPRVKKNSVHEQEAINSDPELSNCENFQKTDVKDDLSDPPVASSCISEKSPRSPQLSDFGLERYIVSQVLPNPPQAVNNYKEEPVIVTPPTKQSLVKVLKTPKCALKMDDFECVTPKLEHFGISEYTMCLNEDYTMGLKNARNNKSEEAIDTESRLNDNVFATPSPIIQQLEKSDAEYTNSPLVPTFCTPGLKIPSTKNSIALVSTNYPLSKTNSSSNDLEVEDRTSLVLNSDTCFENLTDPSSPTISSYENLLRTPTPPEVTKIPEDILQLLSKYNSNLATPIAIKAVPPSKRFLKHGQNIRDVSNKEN

In the case of “full Ska1 complex (Rama1/Ska1/Ska2) (from UniProt Q96BD8 1-255; Q8WVK7 1-121; Q8IX90 1-412)”, the stoichiometry N [1] is reported as 2 and the stoichiometry N (per tubulin dimer) [2] is reported as 1.
